Source: PMC9234716, “Comparative analysis defines a broader FMRFamide-gated sodium channel family and determinants of neuropeptide sensitivity” (The Journal of Biological Chemistry, 2022)
Where a chain is given by its changes, count along the chain named. Where no end group is shown, it is not given here.

Assays:
Capitella WaNaC^212912 = assay: Two-electrode voltage clamp of Xenopus oocytes expressing Capitella WaNaC 212912; type: cell-based, Capitella teleta
Protocol: (§1) Defolliculated stage V/VI oocytes from X. laevis were commercially acquired (Ecocyte Bioscience) and stored at 18 °C in 50% (in water) Leibovitz’s L-15 medium (Gibco) supplemented with additional 0.25 mg/ml gentamicin, 1 mM L-glutamine, and 15 mM Hepes, pH 7.6. Oocytes were injected with 2 ng cRNA (WT or mutant Aplysia FaNaC) and 2 to 60 ng cRNA (WT C. gigas XM_011442205.2, O. bimaculoides XM_014930938.1, L. gigantea XM_009055314.1_160261, P. fucata pfu_aug2.0_4392.1_09318.t1, C. teleta Capca1_207658, Capca1_52833, Capca1_185559, and Capca1_212912, M. lignano Mlig049925.g2, Mlig051885.g1, and Mlig041003.g1, P. australis g6004.t1 and g5063.t1 and R. norvegicus NP_077068.1 (rat ASIC1a) and respective mutants). Two-electrode voltage clamp experiments were performed 1 to 3 days after injection. The oocyte was placed in an RC-3Z bath (Warner Instruments) and bath solution (NaCl: 96 mM, KCl: 2 mM, CaCl2: 1.8 mM, MgCl2: 1 mM, Hepes: 5 mM; pH: 7.5) was perfused continuously and rapidly switched to bath solution containing peptide ligands via the VCS-8-pinch valve control perfusion system (Warner Instruments). […] Peptides were applied at varying concentrations between 30 nM and 100 μM for concentration-response experiments. […] Current recordings were analyzed in Clampfit 11.1 (Molecular Devices). […]

Octopus FaNaC = assay: Peptide-gated currents at oocytes expressing Octopus FaNaC; type: cell-based, Octopus bimaculoides; conditions: peptides at 100 μM
Source text: (§2) Figure 1 Phylogenetic and experimental characterization of the FaNaC family.A, FaNaC branch from DEG/ENaC phylogeny (full phylogeny in Fig. S1). ∗Genes tested here. ∞Genes tested elsewhere. Genes in bold encode peptide-gated channels. aLRT support for key branches is shown. Blue background, broader FaNaC family; green background, annelid-specific branch of FaNaCs with diverse ligand sensitivity; pink background, Wamide-activated channels (WaNaCs). B, example peptide-gated currents at Xenopus oocytes expressing indicated genes. All peptide applications 100 μM, except for some at Capitella FaNaC: FMRFa, FLRPa, FLRFa, and FMKFa (3 μM); LFRYa (30 μM). The scale bars represent x, 10 s; y, 5 μA. C, mean (± SEM) normalized current response to different peptides (concentrations as in (B)) at oocytes expressing indicated channels. Lighter symbols are individual data points, n = 4 to 7. FaNaC, FMRFa-gated sodium channel; FMRFa, Phe-Met-Arg-Phe-amide.

rat ASIC1a [1] = molecular target: T1, rat ASIC1a (Rattus norvegicus, UniProt P55926, K246A); assay: FRRFa enhancement of pH-gated currents at oocytes expressing WT or mutant rat ASIC1a; type: cell-based; conditions: K246A mutant; 50 μM FRRFa; n = 6
T1 construct: R. norvegicus NP_077068.1 (rat ASIC1a) and respective mutants; expressed in transfected cells; host or cells: Xenopus laevis oocytes (cRNA injection)
T1 sequence (P55926 1-526 K246A): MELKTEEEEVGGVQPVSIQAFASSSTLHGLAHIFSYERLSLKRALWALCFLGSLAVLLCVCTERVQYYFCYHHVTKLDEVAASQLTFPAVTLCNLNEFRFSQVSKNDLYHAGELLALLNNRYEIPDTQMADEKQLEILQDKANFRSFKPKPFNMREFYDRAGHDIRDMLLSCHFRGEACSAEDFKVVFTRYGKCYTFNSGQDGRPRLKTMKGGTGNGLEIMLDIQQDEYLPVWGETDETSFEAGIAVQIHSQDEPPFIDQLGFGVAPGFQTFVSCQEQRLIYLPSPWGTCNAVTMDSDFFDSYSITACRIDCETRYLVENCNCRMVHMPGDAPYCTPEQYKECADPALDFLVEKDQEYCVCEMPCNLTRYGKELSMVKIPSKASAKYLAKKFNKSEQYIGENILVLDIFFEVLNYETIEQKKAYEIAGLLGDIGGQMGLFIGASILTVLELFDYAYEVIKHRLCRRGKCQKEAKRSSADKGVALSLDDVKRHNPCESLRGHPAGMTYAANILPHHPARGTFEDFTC
Protocol: (§3) Figure 6 Determinants of FRRFa modulation of rat ASIC1a.A, pH 5.3 (filled black bars)-gated currents after preincubation in desensitizing pH (unfilled bars) alone or in 50 μM FRRFa (blue bars) at oocytes expressing WT or mutant rat ASIC1a (rASIC1a). The scale bars represent x, 10 s; y, 200 nA. Desensitizing pH described in Figure S4. B, mean (± SEM, n = 4–7) enhancement (currentb/currenta from (A)) of desensitized current amplitude by 50 μM FRRFa at indicated rat ASIC1a mutants. ASIC, acid-sensing ion channel.
(§4) Figure S4. Measurement of steady state desensitization and peptide modulation of rat ASIC1a mutants. (A) Left, example currents at an oocyte expressing a rat ASIC1a mutant in response to decreasing pH. Right, mean (± SEM, n = 3-4) normalized currents in response to decreasing pH. (B) Left, example currents at an oocyte expressing a rat ASIC1a mutant in response to pH 5.3 after pre-incubation in decreasing pH. Right, mean (± SEM, n = 3-4) normalized currents in response to decreasing pre-incubation pH. This established that pH 6.9 was strongly desensitizing for WT and most mutants, and pH 6.7 was strongly desensitizing for mutants K246A and V377A. (C) Example experiment showing: current response to activating pH (5.3) after pre-incubation in resting pH 7.8; current response ("a") to activating pH after 20 s pre-incubation in desensitizing pH (6.7 for this mutant); and current response ("b") to activating pH after 20 s pre-incubation in desensitizing pH plus 50 μM FRRFa. Dividing current amplitude "b" by that of "a" gives fold-enhancement by FRRFa in Fig. 6B. All scale bars: x, 10 s; y, 10 μA.

rat ASIC1a [2] = molecular target: T2, rat ASIC1a (Rattus norvegicus, UniProt P55926, S274A); assay: as above; type: cell-based; conditions: S274A mutant; 50 μM FRRFa; n = 6
T2 construct: R. norvegicus NP_077068.1 (rat ASIC1a) and respective mutants; expressed in transfected cells; host or cells: Xenopus laevis oocytes (cRNA injection)
T2 sequence (P55926 1-526 S274A): T1 sequence (P55926 1-526 K246A) with A246K, S274A
Protocol: as §3, §4

rat ASIC1a [3] = molecular target: T3, rat ASIC1a (Rattus norvegicus, UniProt P55926); assay: as above; type: cell-based; conditions: WT; 50 μM FRRFa; pH 5.3 after preincubation in desensitizing pH; n = 7
T3 construct: R. norvegicus NP_077068.1 (rat ASIC1a) and respective mutants; expressed in transfected cells; host or cells: Xenopus laevis oocytes (cRNA injection)
T3 sequence (P55926 1-526): T1 sequence (P55926 1-526 K246A) with A246K
Protocol: as §3, §4

Crassostrea FaNaC = assay: Peptide-gated currents at oocytes expressing Crassostrea FaNaC; type: cell-based, Crassostrea gigas; conditions: peptides at 100 μM
Source text: as §2

[4] = test system: Malacoceros WaNaC^ON156824; assay: Two-electrode voltage clamp of Xenopus oocytes expressing Malacoceros WaNaC ON156824; type: cell-based, Malacoceros fuliginosus; conditions: WT channel, n = 9, mean ± SEM, read-out: KWGGNSRMWa EC50
Capitella FaNaC^52833 = assay: Two-electrode voltage clamp of Xenopus oocytes expressing Capitella FaNaC 52833; type: cell-based, Capitella teleta; conditions: WT; LFRYa 30 μM
Protocol: as §1

[5] = molecular target: Aplysia kurodai FaNaC S184A (Aplysia kurodai)
[6] = molecular target: Capitella teleta FaNaC^52833 (Capitella teleta)
[7] = molecular target: Malacoceros fuliginosus FaNaC^ON156825 (Malacoceros fuliginosus)
[8] = molecular target: Malacoceros fuliginosus FaNaC^ON156826 (Malacoceros fuliginosus)
[9] = molecular target: Aplysia kurodai FaNaC (FMRFa-gated sodium channel) (Aplysia kurodai)
[10] = molecular target: Capitella teleta WaNaC^212912 (Wamide-gated sodium channel) (Capitella teleta)
rat ASIC1a S274A (rat) = molecular target: T4, rat ASIC1a S274A (rat) (UniProt P55926)
T4 sequence: T1 sequence (P55926 1-526 K246A) with A246K, S274A

[11] = molecular target: T5, rat ASIC1a (acid-sensing ion channel 1a) (rat) (UniProt P55926)
T5 sequence: T1 sequence (P55926 1-526 K246A) with A246K

[12] = molecular target: Malacoceros fuliginosus WaNaC^ON156824 (Malacoceros fuliginosus)

Molecule: AWVGDKSLSW-NH2 [AWVGDKSLSWa]
- AWVGDKSLSWa-gated currents (Capitella WaNaC^212912; R255Q, R291N and R472Q mutations): abolished
- EC50 (Capitella WaNaC^212912; WT channel, Xenopus oocytes, n = 8, mean ± SEM, read-out: AWVGDKSLSWa EC50): 2000 ± 200 nM

Molecule: FMKFa: peptide encoded by the Octopus FMRFa propeptide (FMKF-NH2)
- current amplitude relative to FMRFa (Octopus FaNaC): larger currents than FMRFa

Molecule: FRRFa: synthetic FMRFa analog that enhances ASICs (FRRF-NH2)
- enhancement of pH-gated currents (rat ASIC1a [1]): not ostensibly enhanced at all
- enhancement of pH-gated currents (rat ASIC1a [2]): 2 ± 0.3 fold
- enhancement of pH-gated currents (rat ASIC1a [3]): 10 ± 3 fold

Molecule: FLRFa: peptide encoded by the Octopus FMRFa propeptide (FLRF-NH2)
- current amplitude relative to FMRFa (Crassostrea FaNaC): slightly larger currents than FMRFa
- current amplitude relative to FMRFa (Octopus FaNaC): larger currents than FMRFa

Molecule: KWGGNSRMW-NH2 [KWGGNSRMWa]
- EC50 [4]: 340 ± 100 nM

Molecule: LFRYa: product of the RYamide propeptide from Capitella (LFRY-NH2)
- current response to peptide (Capitella FaNaC^52833): small currents

B1: FMRFamide (Phe-Met-Arg-Phe-amide) (peptide)
peptide: FMRF-NH2
- EC50 of FMRFa-gated current, full concentration-response, two-electrode voltage clamp on Xenopus oocytes [5]: 30000 nM
- EC50 of peptide-gated current, two-electrode voltage clamp on Xenopus oocytes [6]: 350 nM
- EC50 of peptide-gated current, two-electrode voltage clamp on Xenopus oocytes [7]: 230 nM
- EC50 of peptide-gated current, two-electrode voltage clamp on Xenopus oocytes [8]: 11000 nM
- EC50 of FMRFa-gated current, two-electrode voltage clamp on Xenopus oocytes [9]: 3400 nM
- I (3 μM)/I (30 μM) ratio of FMRFa potency (3 μM FMRFa-gated current amplitude/30 μM FMRFa-gated current amplitude) [9]: 0.64

B2: …a (peptide)
peptide: AWVGDKSLSW-NH2
- EC50 of peptide-gated current, two-electrode voltage clamp on Xenopus oocytes [10]: 2000 nM

B3: FRRFa (peptide)
peptide: FRRF-NH2
- fold enhancement of desensitized pH 5.3-gated current by 50 μM FRRFa, two-electrode voltage clamp on Xenopus oocytes (rat ASIC1a S274A (rat)): 2 fold
- fold enhancement of desensitized pH 5.3-gated current by 50 μM FRRFa, two-electrode voltage clamp on Xenopus oocytes [11]: 10 fold

B4: …a (peptide)
peptide: KWGGNSRMW-NH2
- EC50 of peptide-gated current, two-electrode voltage clamp on Xenopus oocytes [12]: 340 nM
